This note sets out measurements from the DeepSol protein solubility set.

A short description of the data set: soluble on expression in E. coli; label from the status in PepcDB or PDB records.
For the sequence “MTGQSTGTGEYSDFVAVFRDRYEKLAGKLRGRVNHRPTDAIENMGGGSDAALIGMVSDIRSTASGHWLVELEDTNGTFPCLVMKDRPIADLVQQLLMDEVIAVEGTLADDAGILFVDSLYFPDVPRTHNPSTADRHVQAALISDVHVGSQEFMEDAWHRFTDWLHTPEAEHVEYLLIAGDMVEGVGIYPEQDKELDIIDIYDQYRAFSEYLKEVPADMEIRMIPGNHDAVRLAEPQPGFDEELRDIMSAHDAQVHSNPSLVTVEGVTVLMYHGVSLDEVIAELPDEEASYEEPHRAMYQLLKKRHVAPQYGGHTRLAPEDRDYLVMEEVPDVFHTGHVHKLGWGEYHNVVALNSGCWQAQTEFQKSVNIDPDAGFAPILDLDTLEMTVRKFS”, the “soluble on expression in E. coli” value is given as “not soluble”. The result for “MTHILFDSRRFLQLGAFASLSTALAGAARYVTSTSNNEPADNTPLTIGYVPIAGSAPIAIADALGLFKKHGVNVTLKKYSGWSDLWTAYATEQLDVAHMLSPMTVAINAGVTNASRPTELSFTQNTNGQAITLASKHYGSVNSAADLKGMVLGIPFEYSVHALLLRDYLVSNAVDPIADLELRLLRPADMVAQLTVEGIDGFIGPGPFNERAISNGSGRIWLLTKQLWDKHPCCAVAMAKEWKAEHPTAAQGVLNALEEASAILSNPAQFDSSARTLSQEKYLNQPATLLDGPS” reads “not soluble”; that for “MTHPVAVKACLFDMDGLLINTEDIYTETLNETLAEFGKGPLTWDVKIKLQGLPGPKQEKG”, “soluble”.

As for “MTHQDTIASEDGSDINILLNTVQNAKALVIFAHGAGANMSHEFMNETSRLLNHLGINVLRFNFPFMDKRALTGKKYPPDRMPKLLLCYETVIEYVVDKKLSHQLPLFIGGKSMGSRVAASLVADSDLLKSRLLNHISGVFCIGYPFHPAKKPEKLRLEPLVDANKPVLIVQGDRDTLGNKVEIASYRLAEHCQCVFLEDGDHSLKPRVKSGFTHQAHMQSAVEEIVTFIERVTISS”, the “soluble on expression in E. coli” value is on record as “not soluble”. The result for “MTHRSSRLEVGPVARGDVATIEHAELPPGWVLTTSGRISGVTEPGELSVHYPFPIADLVALDDALTYSSRACQVRFAIYLGDLGRDTAARAREILGKVPTPDNAVLLAVSPNQCAIEVVYGSQVRGRGAESAAPLGVAAASSAFEQGELVDGLISAIRVLSAGIAPG” reads “soluble”.

As for “MTHSQQSMVDTFRASLFDNQDITVADQQIQALPYSTMYLRLNEGQRIFVVLGYIEQEQSKWLSQDNAMLVTHNGRLLKTVKLNNNLLEVTNSGQDPLRNALAIKDGSRWTRDILWSEDNHFRSATLSSTFSFAGLETLNIAGRNVLCNVWQEEVTSTRPEKQWQNTFWVDSATGQVRQSRQMLGAGVIPVEMTFLKPAPLEHHHHHH”, the “soluble on expression in E. coli” value is “soluble”. Turning to “MTHTLQATNPLDQTAWHAWHFSRNKEAISRTGATSLSATEWISATTLKDAHTFPSLPGRWYKRGGGVVGAHLPPAFATTGTVQLRPGELLIAEDFTLTVIERLGQFALQVFDARNPKRFEFHSIAAFPPSEEWRIEARFFPEPDTVNTAAADGVIVATPTAGWVHFLKGRLDYRLRVTVQKNNLRALFSDNSSTLGVYQHRFVDIPRPDAEGNTIIDFNRAYLPPKALNRKFLCPSPSLNNHLNLTVEAGEKWVVAGGLEHHHHHH”, the “soluble on expression in E. coli” value is reported as “soluble”. The result for “MTIAILSTGDEIIHGDTLNTNAHYIAHALCSEGLPLGLQVACSDKENEIIDSLNFLTQHHDILILIGGLGPTKDDITRFALAKFTKEPLLQHADALDHIEKKANIAKISLNQGNLQQCLFPANARLFPNPYGTAMGCSYSWKGKVFILLPGPPRECLPMFNQDVLPLLLQTSRHSNK” reads “not soluble”; that for “MTIAQEPTALNFECETGNYHTFCPISCVAWLYQKIEDSFFLVIGTKTCGYFLQNAMGVMIFAEPRYAMAELEEGDISAQLNDYAELKRLCEQIKRDRNPSVIVWIGTCTTEIIKMDLEGLAPKLEGEIGIPIVVARANGLDYAFTQGEDTVLAAMAHRCPDKAPVAEAEKNLEHHHHHH”, “soluble”; that for “MTIAVSPQALPALVLNADYRPLSYYPLSLWSWQDAIKAVFLDRVNIIAEYDHAVSSPSFSMRLPSVVSLKTYVQPIRNPAFTRFNVFLRDKFECQYCGTRDELTFDHVIPRAHGGETTWHNVVAACSPCNLRKGSKLPKQAGMFPAQKPFQPTVQDLHNNGRLFPPNYLHESWMDYLYWDTELQPLEHHHHHH”, “not soluble”. The result for “MTIEDTVIKLIGSLKDPLLDLTGKEMNLQYKITTSNQAMHVVLTAGYPTSLLETSYKPIVQKIVQDEFPNYQVTISIQQFIKAHKTQLTGKALRGVKNTIAVASGKGGVGKSTVTVNLAAALAKLGARVGILDADIYGPSIPLMLGETKPVQVKDNCYIPVEAHGMQAMSIGYLTDTNQALIWRGPMLAKSLIQMLDITLWNELDYLFIDLPPGTGDIQLTLVQKIPLTSAIVVTTPQNVATLDAQKAITMFSRTGIDVLGIIENMSTHICSHCGHQEAIFGRGGAAALCDAYQCTLLGQLPLDSHVRRHCDEGVPTATHSSNQLTDTFIKTAMRTAIELSKKPINYADRFPKIVVEAAALEHHHHHH” reads “soluble”; that for “MTIIKLERRDVRLLLLYEFRLGHSAMEAERNICGAMGEGALSYNTAKSWFQKFKNGDFSLEEIERSGRPVELNEEDLVKLVEEEPRLSLREMEEKLECCHSTIPRHLGRLGFTSKLGTWVPHELSASQKLTRVNVCTQLLTFRRKFDWLNNLVTGDEKWVLYVNHSRKRQWLPIGEKGIPTPKPDLHPKKIMICV”, “soluble”. Next, “MTIKSDKWIRRMAQEHGMIEPFVERQVRGADDSRVISYGVSSYGYDVRCAAEFKVFTNIHSAVVDPKNFDEKSFVDINSDVCIIPPNSFALARTVEYFRIPRDVLTICLGKSTYARCGIIVNVTPLEPEWEGHVTLEFSNTTNLPAKIYANEGVAQMLFLQSDEACEVSYKDRGGKYQGQR”: “soluble”.

For “MTISNSNLLKPFITGTELPPFKEDVFSKTEEQFKKSTYGKSLFISGNENLVNISAEKIDEIKNSKNFFSNIVNIIILLIKHPDKILPILHGCPVESIEVIKNAKRTGQWSYEMTDKNGQSIEVSYIFTDTIDDKSDGKLCLKICNSCNQNDSSTHEYKIDHQQLKNHIRQLEEWALLEKFYDNNAYYSKRTKQLEKKIADAGFITRKVKAENFNVKEFKDDIASMLCEQPPMRTHQISSSGYVSADKLHKLYKTNLEDAQRDLKTTPVDIDGVSLKSITREKIAEEIAKKTAEIIAKQNAKSIEEKNIEKNKKQTNSEDNFVLKFSPEEINEMLLDYSDEEQKKLRPFFTSDHIYCLFDAFSQGLHNVARNGSPRYAGLLRQIASKSAILQDFDQQLFWRTFTGGVLHRHISVKSEPEKTDVWRFSSQFDFPHINENGELSRTVLMFEGVAESNFKDIANHSSECFSYRCYAAPLDANAKK”, the “soluble on expression in E. coli” value is “soluble”. With “MTIVIGFEGSANKIGIGIIKDGEVLSNPRRTYITPPGQGFLPGETAKHHRSVILTVLQEALDEAGLKAADIDCVAYTKGPGMGAPLVTVAIVARTVAQLWGKPLLGVNHCIGHIEMGRLITNAQNPTVLYVSGGNTQVIAYSERRYRIFGETIDIAVGNCLDRFARVIKISNDPSPGYNIEQMAKKGNKYIELPYTVKGMDVSFSGILSYIEDAAHKMLSTDQCTPEDLCFSLQETVFAMLVEITERAMAHCGSQEVLIVGGVGCNLRLQEMMGVMCKERGARLFATDESFCIDNGAMIAQAGWEMFRSGHVTELPDSWITQRYRTDEVEVTWRD”, the “soluble on expression in E. coli” value is on record as “soluble”. As for “MTIYPKLILDALATVRYPGTGKNLVEAGMVEDNIRIEGMKVSFSLIFEKPTDPFMKSVIKAAETAILTHVGKEVEIVGNISVKTVQAARPEVGKLLPHVKNIIGISSGKGGVGKSTVSANLAVALAKLGYKVGLLDADVFGPSMPKMFQVEDARPYAEKIDGRDMIIPVEKYGVKLLSIGFFVDPDQATLWRGGMASNALKQLIGDAAWGDLDYFLIDLPPGTSDIHLTVVQTLALTGAVVVSTPQAVALADARKGINMFTNDKVNVPILGLVENMAWFTPAELPENKYYLFGKEGAKKLAEEMNVPLLGQIPIVQSICEGGDKGTPVALDENTVTGRAFLALAASVVRQVDKRNVEMAPTKIVELHKLEHHHHHH”, the “soluble on expression in E. coli” value is given as “soluble”. Turning to “MTKEVLIHQIIDVLARAGFALSDRCNIRPRSFDVAARKDDTLLLCKVLFNIDGLNEETAREMKYLAEYLGGSAIVVGAKTRDQMLEDSVVYMRYDILALSVQTLYDYFVENIRPLVSAAPGGLYVSIEGDLLKKARTTQSMSLGTLASMVGVSRRTISKYEEEGMDASIDVVLHLEDIFGVELAKPIDILKSCGSRKPRKKAEPEKEEPKGKPGTLLPEDLILNTISMLGYDVLPTAQAPFKAISRDKSSVILTGVSEFNTTVIKRAHLMSSISCITETQSVFIINGRSKLKSVENTVLIEKKELDTISDSQELLDFIEERKDTHEA”, the “soluble on expression in E. coli” value was “not soluble”. Regarding “MTKKQKEILFCDYFEEWVEVYKVGAIAKITLAKYYNAAKQLRDLCPKLFISDFDRREYQRIINVYAETHEKQTVKDFHHHVKACIKDLFHDGLIDKDPTYRVVIKGAELEHHHHHH”, the “soluble on expression in E. coli” value is on record as “soluble”. Next, “MTKLHDISEHEKAIDFSIYLDSLPQYQHLASQDESHRHRALGIYSDFLSEENKSKRAALQNYKNYISLTERDPNQLAYPELQETRIDAVFSPDFMGSFAKSNGRHEETPMDGPGGYDMRSYLPYQTAPSGSLGNISTASSSCSSPPGTPAPSGKGRSPQAGGKMTSSGKGKKRLDKDSDEYRQRRERNNLAVRKSRDKAKMRNLETQHKVLELAAENDRLQKRVEQLSRELATLRNLLSATGQC”: “not soluble”; “MTKLQLKYRELKIISVIAASENISHAATVLGIAQANVSKYLADFESKVGLKVFDRTTRQLMLTPFGTALLPYINDMLDRNEQLNNFIADYKHEKRGRVTIYAPTGIITYLSKHVIDKIKDIGDITLSLKTCNLERNAFYEGVEFPDDCDVLISYAPPKDESLVASFITQYAVTAYASQRYLEKHPISRPDELEHHSCILIDSMMIDDANIWRFNVAGSKEVRDYRVKGNYVCDNTQSALELARNHLGIVFAPDKSVQSDLQDGTLVPCFQQPYEWWLDLVAIFRKREYQPWRVQYVLDEMLREIRHQLAQSQQLRPEQAAESED”: “soluble”.

Turning to “MTKPLVIFGSGDIAQLAHYYFTRDSEYEVVAFTVDRDYASVSEFCGLPLVAFDEVAQRFPPESHAMFVALAYAKLNGVRKEKYLAAKALGYELASYVSSHATVLNDGRIGENVFLLEDNTIQPFVSIGNNVTLWSGNHIGHHSTIHDHCFLASHIVVSGGVVIEEQSFIGVNATLRDHITIGSRCVVGAGALEHHHHHH”, the “soluble on expression in E. coli” value is listed as “not soluble”. The result for “MTKRKNASNAGSSPKKEKKSETFAALKSVKAEKRPAADSSDSEPEDFEEEQITHTEAEETRNEDNGQAIYEPDVMRPLIESFLEFLVQRQSETSTVHNMENKVAEWAETRRDDNIDAGLFVLDFRKYLKSAVKFKNLQMNDSCAAISTYLNSEKSLVEYKSMPDRPPTKIQLYIKKHQIMLKGIGGEPMKNAYKAMNADTEGAKELDELLREASLQYIPQLQEFLDTHPNLTEEQKRSIVNKMKMLNKKYNSKEISSTPKKRSSKKDPETAFSLFCRTKNDKYRDLSDEEREIKLQKKFEKLPAAQKDIYESLAISM” reads “soluble”; that for “MTKRNTPQRRHNILALLNEQGEVSVDDLARRFETSEVTIRKDLAALETNGLLLRRYGGAIPLPHELISESSQPVSRYKKAIARAAVSRIREHARIIVDSGSTTAALIPELGQQPGLVVMTNSLHVARALTDLEHEPVLLMTGGTWDPHSESFQGQVAEQVLRSYDFDQLFIGADGIDLIRGTTTFNELLGLSRVMAEVAREVVVMVEADKVGRKIPNLELPWSSIHTLITDDRLPVEARDQIQARGINLICAAVSLEHHHHHH”, “not soluble”.
